Assay results published in patent publication US20100112546A1.

Key:
[1] = molecular target: PSA-alpha-1-antichymotrypsin (PSA-ACT) complex (UniProt P07288); assay: silicon nanowire FET (p-type), antibody on the wire; PSA-ACT 3200 pg/ml
[2] = molecular target: PSA-alpha-1-antichymotrypsin (PSA-ACT) complex (UniProt P07288); assay: silicon nanowire FET (p-type), antibody on the wire; PSA-ACT 3.2 pg/ml
[3] = molecular target: prostate specific antigen (PSA) (UniProt P07288); assay: silicon nanowire FET (p-type), antibody on the wire; f-PSA 0.085 pg/ml
[4] = molecular target: prostate specific antigen (PSA) (UniProt P07288); assay: silicon nanowire FET (p-type), antibody on the wire; f-PSA 850 pg/ml
[5] = molecular target: PSA-alpha-1-antichymotrypsin (PSA-ACT) complex (UniProt P07288); assay: silicon nanowire FET (p-type); mixture of f-PSA 0.85, PSA-ACT 3200 and free Ab1 1 x 10^7 pg/ml (f-PSA blocked by Ab1)
[6] = molecular target: PSA-alpha-1-antichymotrypsin (PSA-ACT) complex (UniProt P07288); assay: silicon nanowire FET (p-type); mixture of f-PSA 8.5, PSA-ACT 320 and free Ab1 1 x 10^7 pg/ml (f-PSA blocked by Ab1)
[7] = molecular target: PSA-alpha-1-antichymotrypsin (PSA-ACT) complex (UniProt P07288); assay: silicon nanowire FET (p-type), antibody on the wire; PSA-ACT 320 pg/ml
[8] = molecular target: prostate specific antigen (PSA) (UniProt P07288); assay: silicon nanowire FET (p-type), antibody on the wire; f-PSA 0.85 pg/ml
[9] = molecular target: PSA-alpha-1-antichymotrypsin (PSA-ACT) complex (UniProt P07288); assay: silicon nanowire FET (p-type), antibody on the wire; PSA-ACT 0.32 pg/ml
[10] = molecular target: PSA-alpha-1-antichymotrypsin (PSA-ACT) complex (UniProt P07288); assay: silicon nanowire FET (p-type); mixture of f-PSA 850, PSA-ACT 0.32 and free Ab1 1 x 10^7 pg/ml (f-PSA blocked by Ab1)
[11] = molecular target: PSA-alpha-1-antichymotrypsin (PSA-ACT) complex (UniProt P07288); assay: silicon nanowire FET (p-type); mixture of f-PSA 850, PSA-ACT 3200 and free Ab1 1 x 10^7 pg/ml (f-PSA blocked by Ab1)
[12] = molecular target: prostate specific antigen (PSA) (UniProt P07288); assay: silicon nanowire FET (p-type), antibody on the wire; f-PSA 1700 pg/ml
[13] = molecular target: prostate specific antigen (PSA) (UniProt P07288); assay: silicon nanowire FET (p-type), antibody on the wire; f-PSA 8.5 pg/ml

Conductance Change, nS [1]: 143 nS
Conductance Change, nS [2]: 67 nS
Conductance Change, nS [3]: 10 nS
Conductance Change, nS [4]: 132 nS
Conductance Change, nS [5]: 138 nS
Conductance Change, nS [6]: 118 nS
Conductance Change, nS [7]: 124 nS
Conductance Change, nS [8]: 50 nS
Conductance Change, nS [9]: 19 nS
Conductance Change, nS [10]: 15 nS
Conductance Change, nS [11]: 140 nS
Conductance Change, nS [12]: 154 nS
Conductance Change, nS [13]: 81 nS
Substance: monoclonal antibody anti-ACT-PSA (AbII, clone PSA1, abcam Inc.)
